Reference: patent US20220396632A1 (VERSEAU THERAPEUTICS, published 2022)

How the values were obtained:
[1] = target: T1, PSGL-1 endogenously expressed on HL-60 cells (UniProt Q14242 42-412); experiment: flow cytometry on HL-60 cells; against parent 20I15
T1 construct: whole, on cells
T1 sequence (looked up): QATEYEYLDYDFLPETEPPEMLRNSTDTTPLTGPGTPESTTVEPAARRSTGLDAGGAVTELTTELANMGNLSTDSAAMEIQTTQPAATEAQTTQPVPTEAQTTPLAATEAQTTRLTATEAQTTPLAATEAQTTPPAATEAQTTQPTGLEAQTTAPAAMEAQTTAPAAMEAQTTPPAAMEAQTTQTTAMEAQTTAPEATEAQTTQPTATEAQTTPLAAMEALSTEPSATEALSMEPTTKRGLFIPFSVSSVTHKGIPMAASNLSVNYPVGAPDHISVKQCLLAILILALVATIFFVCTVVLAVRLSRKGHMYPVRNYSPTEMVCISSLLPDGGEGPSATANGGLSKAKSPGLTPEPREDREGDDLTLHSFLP
Experimental: (§1) A typical flow cytometry assay was performed by resuspending HL-60 cells in FACS buffer (5% FBS and 0.05% Sodium Azide in PBS, pH 7.2) on ice, pelleting cells by centrifugation at 500×g for 3 min, washing cells with FACS buffer, and then blocking Fc receptors on the cells with Fc block (human TruStain FcX™, BioLegend Cat. #422302) on ice for 10 min. After washing, 50,000 cells/50 ul in FACS buffer was added to each well of a 96-well round bottomed plate (Costar, Cat. #3797), and 50 ul of serially diluted (0.06 nM-1.0 uM) test or isotype control antibody was added into duplicate wells. The plate was covered and incubated on ice for 1 h. After washing, Phycoerythrin (PE) conjugated anti-human IgG secondary antibody (Abcam; Cat. #ab99825) was added to each well and the plate incubated in the dark on ice for 30 min. After washing, the cells were fixed (1% paraformaldhyde).

[2] = target: T2, T44A (C-terminal Lys-biotin); experiment: alanine-scan ELISA, streptavidin-immobilized biotin peptide [cont.]
T2 construct: alanine-scan peptide; also called Biotin PSGL-1(42-62) T44A peptide; 44T
T2 peptide: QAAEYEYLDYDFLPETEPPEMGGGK

[3] = target: T3, Biotin PSGL-1(42-62) E56A peptide (C-terminal Lys-biotin); experiment: as above
T3 peptide: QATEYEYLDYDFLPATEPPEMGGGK

[4] = target: T4, Biotin PSGL-1(42-62) D50A peptide (C-terminal Lys-biotin); experiment: as above
T4 peptide: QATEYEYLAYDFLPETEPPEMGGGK

[5] = target: T5, Biotin PSGL-1(42-62) L49A peptide (C-terminal Lys-biotin); experiment: as above
T5 peptide: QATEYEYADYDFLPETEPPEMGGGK

[6] = target: T6, Biotin PSGL-1(42-62) F53A peptide (C-terminal Lys-biotin); experiment: as above
T6 peptide: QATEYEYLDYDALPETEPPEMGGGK

[7] = target: T7, P60A (C-terminal Lys-biotin); experiment: as above
T7 construct: alanine-scan peptide; also called Biotin PSGL-1(42-62) P60A peptide; 60P
T7 peptide: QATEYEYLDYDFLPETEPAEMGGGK

[8] = target: T8, E58A (C-terminal Lys-biotin); experiment: as above
T8 construct: alanine-scan peptide; also called Biotin PSGL-1(42-62) E58A peptide; 58E
T8 peptide: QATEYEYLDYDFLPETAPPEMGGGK

[9] = target: T9, 42-80 (C-terminal Lys-biotin); experiment: ELISA, streptavidin-immobilized biotin peptide
T9 construct: also called Biotin PSGL-1(42-80) peptide
T9 peptide: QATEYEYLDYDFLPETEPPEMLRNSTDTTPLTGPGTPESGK
Experimental: (§2) A typical ELISA experiment involved binding of a single concentration or serially diluted mAb in assay buffer (3% BSA in PBS containing 0.05% Tween®20, pH 7.4) onto BSA blocked high binding microtiter plate half-wells (Corning Cat. #3690), which contained PSGL-1 protein or streptavidin-immobilized biotin peptide. After incubation for 45 min. at 37° C., the plate was washed 3 times with wash buffer (PBS containing 0.05% Tween®20, pH 7.4), and an appropriate HRP-conjugated secondary antibody added (25 ul/well) (HRP goat anti-mouse or anti-human IgG). After 45 min. incubation at 37° C., the plate was washed and antibody bound to plate-immobilized target was determined at A450 nm using HRP substrate (3,3′5,5′-tetramethylbenzidine (TMB)). For each antibody, duplicate values were averaged and assay background subtracted.

[10] = target: T10, Biotin PSGL-1(42-62) peptide, unmodified (human, C-terminal Lys-biotin); experiment: ELISA, streptavidin-immobilized biotin peptide
T10 construct: Residues 42-62 followed by GGGK-biotin; also called WT; wild-type
T10 peptide: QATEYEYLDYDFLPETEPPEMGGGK
Experimental: as §2

[11] = target: T11, Biotin PSGL-1(290-310) peptide (human, N-terminal acetyl; C-terminal Lys-biotin); experiment: ELISA, streptavidin-immobilized biotin peptide
T11 peptide: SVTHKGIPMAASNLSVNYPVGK
Experimental: as §2

[12] = target: T1, PSGL-1 endogenously expressed on HL-60 …; experiment: flow cytometry on HL-60 cells; against parent 19L04
Experimental: as §1

[13] = target: T12, Biotin Y46,48,51(SO3) PSGL-1(42-62) peptide (human, sulfotyrosine at Y46, Y48 and Y51; C-terminal Lys-biotin); experiment: ELISA, plate-bound mAb captures biotin 3 x sY peptide
T12 construct: also called fully sulfated N-terminal PSGL-1 peptide
T12 peptide: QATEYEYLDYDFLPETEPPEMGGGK
Experimental: A typical ELISA for N-terminal PSGL-1 reactive humanized mAbs binding to Y_{46,48,51}(SO₃) PSGL-1₍₄₂₋₆₂₎ involved coating high binding half-well plates (Corning Cat. #3690) with 3 ug/mL/25 ul per well of the mAbs or with an isotype hG4 control in PBS, pH 7.4, overnight at 4° C. […] Biotinylated Y_{46,48,51}(SO₃) PSGL-1₍₄₂₋₆₂₎ was added (25 ul per well) in duplicate at 2.8 uM in assay buffer (blocking buffer containing 0.05% tween 20) and serially diluted into test and control (just blocked) wells, and the plate incubated for 45 min at 37° C. The plate was washed ×3 and an appropriate HRP-conjugated streptavidin was added (25 ul per well; Jackson Immunoresearch, Cat. #016-030-084) and the plate was incubated for 45 min at 37° C. […] For each antibody, an EC50 value was determined from sigmoidal fitted peptide titration curve.

B1: 20I15 (antibody, V domains shown)
VH: EVKLVESGGGLVQPGGSLSLSCAASGFTFTDYYMSWVRQPPGKALEWLGFIRNKANGYTTEYSASVKGRFTISRDNSQSILYLQMNALRAEDSATYYCARTYLRRGYFDVWGTGTTVTVSS
VL: DIVLTQSPASLAVSLGQRATISCRASKSVSTSGYSYMHWFQQKPGQPPKLLIYLASNLESGVPARFSGSGSGTDFTLNIHPVEEEDAATYYCQHSRELPLTFGAGTKLELK
notes: From mouse immunisation; only variable domains given; also called 20115
With B1 the “HL-60 EC50 (normalized)” value [1] was 1 fold.

B2: 9F9 (antibody, V domains shown)
VH: EVQLVETGGGLVQPKGSLKLSCAASGFTFNTNAMNWVRQAPGKGLEWVARIRSKSNNYATYYADSVKDRFTISRDDTQSMIYLQMNNLKTEDTGMYYCVRGGSYWYFDVWGAGTTVTVSS
VL: DVLMTQTPLSLPVSLGDQASISCRSSQSIVNSNGNTYLEWYLQKPGQSPKLLIYKVSNRFSGVPDRFSGSGSGTDFTLKISRVEAEDLGVYYCFQGSHVPWTFGGGTKLEIK
notes: Control anti-PSGL-1 mAb, recombinant; only variable domains given; also called 9F6
B2: binds [2]; binds [3]; binds [4]. B2: binds [5]; binds [6]; binds [7]. B2: binds [8].

B3: 16E17 (antibody, V domains shown)
VH: QIQLVQSGPELKKPGETVKISCKASGYAFTTYGMSWVKQAPGKGLKWMGWINTYSGVPKYADDFKGRFAFSLETSASTAYLHINNLKNEDTATYFCGRHYYGSSYFDYWGQGTTLTVSS
VL: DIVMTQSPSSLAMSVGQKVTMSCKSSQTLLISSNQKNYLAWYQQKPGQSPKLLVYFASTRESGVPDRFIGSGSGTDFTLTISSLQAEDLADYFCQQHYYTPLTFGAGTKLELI
notes: From mouse immunisation; only variable domains given
B3: no binding (tested: 10 nM) [9]; no binding (tested: 10 nM) [10]; no binding (tested: 10 nM) [11].

B4: 19L04 (antibody, IgG4, V domains shown)
VH: QIQLVQSGPELKKPGETVKISCKASGYTFTTYGMSWVKQAPGKGLKWMGWINTYSGVPTYADDFKGRFAFSLETSASTAYLQINNLKIEDTATYFCARHYYGSHYFDYWGQGTTLTVSS
VL: DIMMTQSPSSLAMSVGQKVTLRCKSSQSLLNSSNQKNYLAWYQQKPGQSPKLLVYFASTRESGVPVRFIGSGSGTDFTLTISSMQAEDLADYFCQQHYFSPLTFGAGTKLELK
notes: as for B3
In the case of B4, the “HL-60 EC50 (normalized)” value [12] is reported as 1 fold.

B5: 18F02 (antibody, V domains shown)
VH: QVQLQQPGAELVKPGASVKLSCKASGYTFTSYWMHWVKQRPGQGLEWIGMIHPNSGRTNYNEKFKSKATLTVDKSSSTAYMQLSSLTSEDSAVYYCARSDYWGQGTTLTVSS
VL: DIVMTQAAFSNPVTLGTSASISCRSSKSLLHSDGITYLYWFLQRPGQSPQLLIYRMSNLASGVPDRFSGSGSGTDFTLRISRVEAEDVGVYYCAQMLEFPRTFGGGTKLEIK
notes: as for B3
For B5, the EC50 [13] was 70 nM.
